According to article PMC3448610:

Assays:
[1] = target: T1, wild-type human Macrophage Migration Inhibitory Factor (human), P14174; assay: static light scattering (multi-angle); purified MIF 20-30 µM in PBS 1X, room temperature, DAWN HELEOS II with UV and refractive index detectors; oligomeric state of the protein with itself; details: remark: other sources report otherwise
T1 chain: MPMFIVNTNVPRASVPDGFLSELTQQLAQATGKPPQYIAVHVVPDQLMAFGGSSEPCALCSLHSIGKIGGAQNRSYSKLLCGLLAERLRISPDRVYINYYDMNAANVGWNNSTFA

[2] = target: T1, wild-type human Macrophage Migration …; assay: AUC; sedimentation velocity, 50,000 rpm, 20°C, PBS 1X pH 7.4, protein 5-50 µM (15 µM in Figure 3); c(s) analysis with SEDFIT; oligomeric state of the protein with itself; details: remark: other sources report otherwise

B1: wild-type human Macrophage Migration Inhibitory Factor, P14174 1-115 (natural protein)
chain: T1 chain
stoichiometry N [1]: 3
stoichiometry N [2]: 3
